Here are results for 20 molecules from patent publication US20180016342A1 (published 2018).

Experiment [1] has as its target membrane-bound IL6R on human cells (U266, XG-1, TF-1) (human) (UniProt P08887). In words: cell-based or functional assay.
In experiment [2] the target is T1, human soluble IL6-R (human, UniProt P08887 20-358).
T1 chain: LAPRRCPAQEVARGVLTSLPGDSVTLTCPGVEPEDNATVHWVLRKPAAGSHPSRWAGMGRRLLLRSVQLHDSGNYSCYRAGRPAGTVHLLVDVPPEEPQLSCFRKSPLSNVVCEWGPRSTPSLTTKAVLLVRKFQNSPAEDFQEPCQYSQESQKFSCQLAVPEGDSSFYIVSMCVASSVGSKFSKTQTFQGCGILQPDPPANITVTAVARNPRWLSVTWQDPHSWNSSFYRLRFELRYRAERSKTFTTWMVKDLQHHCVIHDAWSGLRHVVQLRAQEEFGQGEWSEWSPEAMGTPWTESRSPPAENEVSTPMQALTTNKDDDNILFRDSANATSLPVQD
As to the kind of experiment: Alphascreen inhibition of IL6/IL6-R interaction. For orientation: Bead proximity is the source of the signal in Alpha formats.

Experiment [3] deals with T2, soluble IL6-R in cynomolgus plasma (cynomolgus monkey, UniProt A0A2K5WN54 60-386).
T2 chain: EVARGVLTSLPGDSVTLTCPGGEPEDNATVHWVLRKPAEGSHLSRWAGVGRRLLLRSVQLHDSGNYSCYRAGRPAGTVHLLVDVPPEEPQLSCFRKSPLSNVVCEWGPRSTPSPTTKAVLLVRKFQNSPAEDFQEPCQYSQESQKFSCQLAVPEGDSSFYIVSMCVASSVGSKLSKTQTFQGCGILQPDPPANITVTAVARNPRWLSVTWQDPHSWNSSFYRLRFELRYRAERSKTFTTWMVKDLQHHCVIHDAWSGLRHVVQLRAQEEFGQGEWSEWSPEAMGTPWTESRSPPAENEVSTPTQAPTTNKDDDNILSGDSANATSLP
As to the kind of experiment: ELISA inhibition of IL-6 binding to plasma sIL6R; cyno plasma, 50 ng/mL IL-6. Background: An ELISA detects its analyte on a solid surface through an enzyme-linked reagent.

For experiment [4], the target named is T1, human soluble IL6-R. As to the kind of experiment: Alphascreen inhibition of IL6/IL6-R interaction.
Experiment [5] addresses T1, human soluble IL6-R. As to the kind of experiment: Alphascreen inhibition of IL6/IL6-R interaction.
The target of experiment [6] is T1, human soluble IL6-R. In words: Alphascreen inhibition of IL6/IL6-R interaction.
The target of experiment [7] is T1, human soluble IL6-R. As to the kind of experiment: Alphascreen inhibition of IL6/IL6-R interaction; printed LOGEC50 -9.833.

MAb BN-12 (antibody) displayed an IC50 (nM), XG-1 cell based assay in experiment [1] of 0.272 nM.
In experiment [1], MAb BR-6 (antibody) registered an IC50 (+1% HSA), TF-1 proliferation assay, 200 pg/ml IL-6 of 0.088; an IC50 (nM), XG-1 cell based assay of 0.064 nM; an IC50 (w/o HSA), TF-1 proliferation assay, 200 pg/ml IL-6 of 0.042.

B1: IL6R84 (VHH)
VHH: EVQLVESGGGLVQPGGSLRLSCAASGFTFDDYGMSWVRQAPGKGLEWVSAISWNGNNTYYTESMKGRFTISRDNAKNTLYLQMNSLRPEDTAVYYCVKGSTAIVGVPPTYPDEYDYWGQGTLVTVSS
In experiment [2], B1 displayed an EC50 of 0.465 nM.

B2: IL6R83 (VHH)
VHH: EVQLVESGGGLVQPGGSLRLSCAASGFTFDDYGMSWVRQAPGRATEWVSAISWNGNNTYYTESMKGRFTISRDNAKNTLYLQMNSLRPEDTAVYYCVKGSTAIVGVPPTYPDEYDYWGQGTLVTVSS
B2 returned an EC50 in experiment [2] of 0.0779 nM.

B3: IL6R88 (VHH)
VHH: EVQLVESGGGLVQPGGSLRLSCAASGFTFDDYGMSWVRQAPGKGTEWVSAISWNGNNTYYTESMKGRFTISRDNAKNTLYLQMNSLRPEDTAVYYCVKGSTAIVGVPPTYPDEYDYWGQGTLVTVSS
With B3, the EC50 in experiment [3] was 23.3 nM; in experiment [4] it was 0.0727 nM.

B4: IL6R81 (VHH)
VHH: EVQLVESGGGLVQPGGSLRLSCAASGFTFDDYGMSWVRQAPGRATEWVSAISWNGNNTYYTESMKGRFTISRDNAKNTVYLQMNSLRPEDTAVYYCVKGSTAIVGVPPTYPDEYDYWGQGTLVTVSS
Molecule B4 registered an EC50 in experiment [2] of 0.0747 nM.

B5: IL6R13 (VHH)
VHH: EVQLVESGGGLVQPGGSLRLSCAASGFTFDDYGMSWVRQAPGRATEWVSAISWNGNNTYYTESMKGRFTISRDNAKNTVYLQMNSLKPEDTAVYYCVKGSTAIVGVPPTYPDEYDYWGQGTQVTVSS
On to B5, for which the EC50 in experiment [3] was 11.7 nM; in experiment [2], 0.0644 nM; in experiment [4], 0.0505 nM.

B6: IL6R82 (VHH)
VHH: EVQLVESGGGLVQPGGSLRLSCAASGFTFDDYGMSWVRQAPGKGLEWVSAISWNGNNTYYTESMKGRFTISRDNAKNTVYLQMNSLRPEDTAVYYCVKGSTAIVGVPPTYPDEYDYWGQGTLVTVSS
For the molecule B6, in experiment [2], the EC50 stood at 0.476 nM.

B7: IL6R04 (VHH)
VHH: EVQLVESGGGLVQAGGSLRLSCAASGFTFDDYDIGWFRQAPGKEREGVSGISSSDGNTYYADSVKGRFTISSDNAKNTVYLQMNSLKPEDTAVYYCAAEPPDSSWYLDGSPEFFKYWGQGTQVTVSS
In the case of B7, the EC50 in experiment [5] was found to be 0.18 nM; in experiment [3] it was 36.9 nM; in experiment [4] it was 0.0568 nM.

B8: IL6R75 (VHH)
VHH: EVQLVESGGGLVQPGGSLRLSCAASGFTFSDYDIGWFRQAPGKGREGVSGISSSDGNTYYADSVKGRFTISRDNAKNTLYLQMNSLRPEDTAVYYCAAEPPDSSWYLDGSPEFFKYWGQGTLVTVSS
Regarding B8, the EC50 in experiment [4] worked out at 0.0432 nM.

B9: IL6R72 (VHH)
VHH: EVQLVESGGGLVQPGGSLRLSCAASGFTFSDYDIGWFRQAPGKGREGVSGISSSDGNTYYADSVKGRFTISSDNAKNTVYLQMNSLRPEDTAVYYCAAEPPDSSWYLDGSPEFFKYWGQGTLVTVSS
For the molecule B9, in experiment [5], the half-maximal effective concentration (EC50) turned out to be 0.16 nM.

B10: IL6R73 (VHH)
VHH: EVQLVESGGGLVQPGGSLRLSCAASGFTFDDYDIGWFRQAPGKGREGVSGISSSDGNTYYADSVKGRFTISRDNAKNTVYLQMNSLRPEDTAVYYCAAEPPDSSWYLDGSPEFFKYWGQGTLVTVSS
With B10, the EC50 in experiment [5] was 0.0916 nM.

B11: IL6R71 (VHH)
VHH: EVQLVESGGGLVQPGGSLRLSCAASGFTFDDYDIGWFRQAPGKGREGVSGISSSDGNTYYADSVKGRFTISSDNAKNTVYLQMNSLRPEDTAVYYCAAEPPDSSWYLDGSPEFFKYWGQGTLVTVSS
Take B11: a half-maximal response in experiment [5] (EC50) required 0.153 nM.

B12: IL6R74 (VHH)
VHH: EVQLVESGGGLVQPGGSLRLSCAASGFTFDDYDIGWFRQAPGKGREGVSGISSSDGNTYYADSVKGRFTISSDNAKNTLYLQMNSLRPEDTAVYYCAAEPPDSSWYLDGSPEFFKYWGQGTLVTVSS
B12 gave an EC50 in experiment [5] of 0.133 nM.

B13: IL6R03 (VHH)
VHH: EVQLVESGGGLVQAGGSLRLSCAASGSIFKVNAMGWYRQAPGKQRELVAGIISGGSTNYADSVKGRLTISRDNAKNTVYLQMNSLKPEDTAVYYCSFVTTNSDYDLGRDYWGQGTQVTVSS
B13: the EC50 in experiment [3] was 5.88 nM; in experiment [6], 0.187 nM; in experiment [4] it was 0.105 nM.

B14: IL6R64 (VHH)
VHH: EVQLVESGGGLVQPGGSLRLSCAASGSIFKVNAMGWYRQAPGKGRELVAGIISGGSTNYADSVKGRLTISRDNAKNTVYLQMNSLRPEDTAVYYCAFVTTNSDYDLGRDYWGQGTLVTVSS
B14 yielded an EC50 in experiment [6] of 0.108 nM.

B15: IL6R63 (VHH)
VHH: EVQLVESGGGLVQPGGSLRLSCAASGSIFKVNAMGWYRQAPGKGRELVAGIISGGSTNYADSVKGRLTISRDNAKNTLYLQMNSLRPEDTAVYYCSFVTTNSDYDLGRDYWGQGTLVTVSS
For B15, the EC50 in experiment [6] is 0.65 nM.

B16: IL6R65 (VHH)
VHH: EVQLVESGGGLVQPGGSLRLSCAASGSIFKVNAMGWYRQAPGKGRELVAGIISGGSTNYADSVKGRFTISRDNAKNTLYLQMNSLRPEDTAVYYCAFVTTNSDYDLGRDYWGQGTLVTVSS
With B16, the EC50 in experiment [3] is 4.91 nM; in experiment [7], 0.105 nM.

B17: IL6R62 (VHH)
VHH: EVQLVESGGGLVQPGGSLRLSCAASGSIFKVNAMGWYRQAPGKGRELVAGIISGGSTNYADSVKGRFTISRDNAKNTVYLQMNSLRPEDTAVYYCSFVTTNSDYDLGRDYWGQGTLVTVSS
In turn, B17 came in with an EC50 in experiment [6] of 0.28 nM.

B18: IL6R61 (VHH)
VHH: EVQLVESGGGLVQPGGSLRLSCAASGSIFKVNAMGWYRQAPGKGRELVAGIISGGSTNYADSVKGRLTISRDNAKNTVYLQMNSLRPEDTAVYYCSFVTTNSDYDLGRDYWGQGTLVTVSS
With B18, the EC50 in experiment [6] is 0.336 nM.

The EC50 is the concentration giving half of the maximal effect.
